Data on five molecules can be found in patent US20230093708A1, “PROTEIN NANOPARTICLE DESIGN AND APPLICATION” (Duke University, priority 2020, published 2023).

The nature of series [1]: Static and dynamic light scattering (SLS/DLS) of block co-polypeptides. It counts as physicochemical. To be noted: for ρ: shape factor Rg/Rh. As for the experimental part:
Key parameters of interest are the hydrophilicity of the corona-forming block, the hydrophilicity of the core block, the overall length of the co-polypeptide and the ratio of the two blocks. Parameters of evaluation are the size, morphology, stability, and thermoresponsive behavior. All measurements were made in 140 mM NaCl, 10 mM phosphate buffer, 3 mM KCl, pH 7.4 unless otherwise specified. Size was evaluated by the hydrodynamic radios (Rh) and radius of gyration (Rg) by dynamic light scattering (DLS) and static light scattering (SLS) respectively. Rg and Rh can be combined to yield the shape factor ρ=Rg/Rh, which provides a rough indication of the morphology of the scatterer. […] For an elongated scatterer, the shape factor depends upon the aspect ratio. A combination of temperature dependent turbidity and DLS was utilized to determine the phase behavior of the block co-polypeptides. Cryogenic transmission electron microscopy (Cryo-TEM) was utilized to evaluate the morphology and provide crucial insight into the hydration of the core/corona chains. Stability of the assembled nanostructure was determined by a shift in the I1/I3 fluorescent bands of pyrene as described previously.
Static and dynamic light scattering measurements (SLS/DLS) were performed using an ALV/CGS-3 goniometer system (Langen, Germany). Samples for the ALV/CGS-3 goniometer system were prepared at a concentration of 10 μM in PBS and filtered through 0.45 μm Millex-GV filters into a 10 mm disposable borosilicate glass tube (Fischer). Simultaneous SLS and DLS measurements were obtained at 15° C. of the ELP for angles between 30°-150° at 5° increments, with each angle consisting of 3 runs for 15 s. SLS experiments were only conducted for self-assembling block co-polypeptides, since the molecular weight of a single block co-polypeptide chain is already known, and the Rg of a single chain is likely near or below the detection limit of the SLS instrument. The differential refractive index (dn/dc) was determined by measuring the refractive index at different concentrations using an Abbemat 500 refractometer (Anton Paar, Graz, Austria). DLS data were analyzed by fitting the autocorrelation function with a cumulant fit, using the built-in ALV software. Hydrodynamic radius (Rh) was plotted against angle and extrapolated to zero. SLS data were analyzed by partial Zimm plots using ALVSTAT software in order to determine the Rg and molecular weight (MW).

Series [2] is described as follows: Cryo-TEM micelle core size, inter-core spacing and aspect ratio. The format is physicochemical. As to the method: Using the data from FIG. 18, particularly the longest straight line of an individual particle and a corresponding perpendicular measurement were made to describe the aspect ratio of particles observed.
Cryo-TEM experiments were performed at Duke University's Shared Materials Instrumentation Facility (Durham, N.C.). Lacey holey carbon grids (Ted Pella, Redding, Calif.) were glow discharged in a PELCO EasiGlow Cleaning System (Ted Pella, Redding, Calif.). A 3 μL drop (10 μM RLPn-ELP80) was deposited onto the grid, blotted for 3 s with an offset of −3 mm, and vitrified in liquid ethane using the Vitrobot Mark III (FEI, Eindhoven, Netherlands). Prior to vitrification, the sample chamber was maintained at 15° C. and 100% relative humidity to prevent sample evaporation. Grids were transferred to a Gatan 626 cryoholder (Gatan, Pleasanton, Calif.) and imaged with a FEI Tecnai G2 Twin TEM (FEI, Eindhoven, Netherlands), operating at 80 keV. Feature sizes and spacing distances were measured in ImageJ by manual measurement of at least 25 particles.

B1: RLP20-ELP40: RLP-ELP block co-polypeptide, (QYPSDGRG)20-(VPG[A:G]G)40 (protein)
chain: QYPSDGRGQYPSDGRGQYPSDGRGQYPSDGRGQYPSDGRGQYPSDGRGQYPSDGRGQYPSDGRGQYPSDGRGQYPSDGRGQYPSDGRGQYPSDGRGQYPSDGRGQYPSDGRGQYPSDGRGQYPSDGRGQYPSDGRGQYPSDGRGQYPSDGRGQYPSDGRGGAGVPGGGVPGAGVPGGGVPGAGVPGGGVPGAGVPGGGVPGAGVPGGGVPGAGVPGGGVPGAGVPGGGVPGAGVPGGGVPGAGVPGGGVPGAGVPGGGVPGAGVPGGGVPGAGVPGGGVPGAGVPGGGVPGAGVPGGGVPGAGVPGGGVPGAGVPGGGVPGAGVPGGGVPGAGVPGGGVPGAGVPGGGVPGAGVPGGGVP
Consider B1, for which the “hydrodynamic radius (Rh)” value in series [1] is recorded as 5.3 nm. Besides, in series [1] (Table 3, 10 μM in PBS, 15 °C), the “Rh (nm)” value is recorded as 5.3 nm.

B2: RLP60-ELPS80: RLP-ELP block co-polypeptide with Ser guest residue in the corona (protein)
chain: QYPSDGRGQYPSDGRGQYPSDGRGQYPSDGRGQYPSDGRGQYPSDGRGQYPSDGRGQYPSDGRGQYPSDGRGQYPSDGRGQYPSDGRGQYPSDGRGQYPSDGRGQYPSDGRGQYPSDGRGQYPSDGRGQYPSDGRGQYPSDGRGQYPSDGRGQYPSDGRGQYPSDGRGQYPSDGRGQYPSDGRGQYPSDGRGQYPSDGRGQYPSDGRGQYPSDGRGQYPSDGRGQYPSDGRGQYPSDGRGQYPSDGRGQYPSDGRGQYPSDGRGQYPSDGRGQYPSDGRGQYPSDGRGQYPSDGRGQYPSDGRGQYPSDGRGQYPSDGRGQYPSDGRGQYPSDGRGQYPSDGRGQYPSDGRGQYPSDGRGQYPSDGRGQYPSDGRGQYPSDGRGQYPSDGRGQYPSDGRGQYPSDGRGQYPSDGRGQYPSDGRGQYPSDGRGQYPSDGRGQYPSDGRGQYPSDGRGQYPSDGRGQYPSDGRGQYPSDGRGGSGVPGSGVPGSGVPGSGVPGSGVPGSGVPGSGVPGSGVPGSGVPGSGVPGSGVPGSGVPGSGVPGSGVPGSGVPGSGVPGSGVPGSGVPGSGVPGSGVPGSGVPGSGVPGSGVPGSGVPGSGVPGSGVPGSGVPGSGVPGSGVPGSGVPGSGVPGSGVPGSGVPGSGVPGSGVPGSGVPGSGVPGSGVPGSGVPGSGVPGSGVPGSGVPGSGVPGSGVPGSGVPGSGVPGSGVPGSGVPGSGVPGSGVPGSGVPGSGVPGSGVPGSGVPGSGVPGSGVPGSGVPGSGVPGSGVPGSGVPGSGVPGSGVPGSGVPGSGVPGSGVPGSGVPGSGVPGSGVPGSGVPGSGVPGSGVPGSGVPGSGVPGSGVPGSGVPGSGVPGSGVPGSGVPGSGVPGSGVP
Regarding B2, in series [1] (Table 5, 10 μM in PBS, 15 °C), the Nagg stood at 244, the “Rg(nm)” value is on record as 27.5 nm and the “Rh (nm)” value is 43.5 nm. Besides, the ρ in series [1] (Table 5) is given as 0.6.

B3: RLP60-ELP80: RLP-ELP block co-polypeptide, 60 core and 80 corona repeats (protein)
chain: QYPSDGRGQYPSDGRGQYPSDGRGQYPSDGRGQYPSDGRGQYPSDGRGQYPSDGRGQYPSDGRGQYPSDGRGQYPSDGRGQYPSDGRGQYPSDGRGQYPSDGRGQYPSDGRGQYPSDGRGQYPSDGRGQYPSDGRGQYPSDGRGQYPSDGRGQYPSDGRGQYPSDGRGQYPSDGRGQYPSDGRGQYPSDGRGQYPSDGRGQYPSDGRGQYPSDGRGQYPSDGRGQYPSDGRGQYPSDGRGQYPSDGRGQYPSDGRGQYPSDGRGQYPSDGRGQYPSDGRGQYPSDGRGQYPSDGRGQYPSDGRGQYPSDGRGQYPSDGRGQYPSDGRGQYPSDGRGQYPSDGRGQYPSDGRGQYPSDGRGQYPSDGRGQYPSDGRGQYPSDGRGQYPSDGRGQYPSDGRGQYPSDGRGQYPSDGRGQYPSDGRGQYPSDGRGQYPSDGRGQYPSDGRGQYPSDGRGQYPSDGRGQYPSDGRGQYPSDGRGGAGVPGGGVPGAGVPGGGVPGAGVPGGGVPGAGVPGGGVPGAGVPGGGVPGAGVPGGGVPGAGVPGGGVPGAGVPGGGVPGAGVPGGGVPGAGVPGGGVPGAGVPGGGVPGAGVPGGGVPGAGVPGGGVPGAGVPGGGVPGAGVPGGGVPGAGVPGGGVPGAGVPGGGVPGAGVPGGGVPGAGVPGGGVPGAGVPGGGVPGAGVPGGGVPGAGVPGGGVPGAGVPGGGVPGAGVPGGGVPGAGVPGGGVPGAGVPGGGVPGAGVPGGGVPGAGVPGGGVPGAGVPGGGVPGAGVPGGGVPGAGVPGGGVPGAGVPGGGVPGAGVPGGGVPGAGVPGGGVPGAGVPGGGVPGAGVPGGGVPGAGVPGGGVPGAGVPGGGVPGAGVPGGGVPGAGVPGGGVP
Take B3: in series [2], the “core radius (cryo-TEM)” value is roughly 17.5 nm and the “spacing between particle cores (cryo-TEM)” value was determined as 29.5 nm. In series [2] (Table 2, inter-core spacing, mean ± standard deviation), the “Spacing (nm)” value amounted to 28.9 ± 5.1 nm. In series [2] (Table 2, mean ± standard deviation, 10 μM in 140 mM PBS), the “Core radius (nm)” value was found to be 17.5 ± 2.7 nm. In series [1] (Table 1, 10 μM in PBS, 15 °C), the Nagg came to 231, the “Rg(nm)” value was 23.8 nm and the “Rh (nm)” value came to 36.7 nm. For the same molecule, in series [1] (Table 1), the ρ was 0.65.

B4: [S]-80-[NHQ]-40: block co-polypeptide of two UCST blocks, (GRGDSPYS)80-(GRGDNPHQ)40 (protein)
chain: GRGDSPYSGRGDSPYSGRGDSPYSGRGDSPYSGRGDSPYSGRGDSPYSGRGDSPYSGRGDSPYSGRGDSPYSGRGDSPYSGRGDSPYSGRGDSPYSGRGDSPYSGRGDSPYSGRGDSPYSGRGDSPYSGRGDSPYSGRGDSPYSGRGDSPYSGRGDSPYSGRGDSPYSGRGDSPYSGRGDSPYSGRGDSPYSGRGDSPYSGRGDSPYSGRGDSPYSGRGDSPYSGRGDSPYSGRGDSPYSGRGDSPYSGRGDSPYSGRGDSPYSGRGDSPYSGRGDSPYSGRGDSPYSGRGDSPYSGRGDSPYSGRGDSPYSGRGDSPYSGRGDSPYSGRGDSPYSGRGDSPYSGRGDSPYSGRGDSPYSGRGDSPYSGRGDSPYSGRGDSPYSGRGDSPYSGRGDSPYSGRGDSPYSGRGDSPYSGRGDSPYSGRGDSPYSGRGDSPYSGRGDSPYSGRGDSPYSGRGDSPYSGRGDSPYSGRGDSPYSGRGDSPYSGRGDSPYSGRGDSPYSGRGDSPYSGRGDSPYSGRGDSPYSGRGDSPYSGRGDSPYSGRGDSPYSGRGDSPYSGRGDSPYSGRGDSPYSGRGDSPYSGRGDSPYSGRGDSPYSGRGDSPYSGRGDSPYSGRGDSPYSGRGDSPYSGRGDSPYSGRGDNPHQGRGDNPHQGRGDNPHQGRGDNPHQGRGDNPHQGRGDNPHQGRGDNPHQGRGDNPHQGRGDNPHQGRGDNPHQGRGDNPHQGRGDNPHQGRGDNPHQGRGDNPHQGRGDNPHQGRGDNPHQGRGDNPHQGRGDNPHQGRGDNPHQGRGDNPHQGRGDNPHQGRGDNPHQGRGDNPHQGRGDNPHQGRGDNPHQGRGDNPHQGRGDNPHQGRGDNPHQGRGDNPHQGRGDNPHQGRGDNPHQGRGDNPHQGRGDNPHQGRGDNPHQGRGDNPHQGRGDNPHQGRGDNPHQGRGDNPHQGRGDNPHQGRGDNPHQ
For the molecule B4, the “Rh (nm)” value in series [1] (Table 9, UCST-UCST block co-polypeptides) is 7.0 nm.

B5: RLP60-ELPV80: RLP-ELP block co-polypeptide with Val guest residue in the corona (protein)
chain: QYPSDGRGQYPSDGRGQYPSDGRGQYPSDGRGQYPSDGRGQYPSDGRGQYPSDGRGQYPSDGRGQYPSDGRGQYPSDGRGQYPSDGRGQYPSDGRGQYPSDGRGQYPSDGRGQYPSDGRGQYPSDGRGQYPSDGRGQYPSDGRGQYPSDGRGQYPSDGRGQYPSDGRGQYPSDGRGQYPSDGRGQYPSDGRGQYPSDGRGQYPSDGRGQYPSDGRGQYPSDGRGQYPSDGRGQYPSDGRGQYPSDGRGQYPSDGRGQYPSDGRGQYPSDGRGQYPSDGRGQYPSDGRGQYPSDGRGQYPSDGRGQYPSDGRGQYPSDGRGQYPSDGRGQYPSDGRGQYPSDGRGQYPSDGRGQYPSDGRGQYPSDGRGQYPSDGRGQYPSDGRGQYPSDGRGQYPSDGRGQYPSDGRGQYPSDGRGQYPSDGRGQYPSDGRGQYPSDGRGQYPSDGRGQYPSDGRGQYPSDGRGQYPSDGRGQYPSDGRGGVGVPGVGVPGVGVPGVGVPGVGVPGVGVPGVGVPGVGVPGVGVPGVGVPGVGVPGVGVPGVGVPGVGVPGVGVPGVGVPGVGVPGVGVPGVGVPGVGVPGVGVPGVGVPGVGVPGVGVPGVGVPGVGVPGVGVPGVGVPGVGVPGVGVPGVGVPGVGVPGVGVPGVGVPGVGVPGVGVPGVGVPGVGVPGVGVPGVGVPGVGVPGVGVPGVGVPGVGVPGVGVPGVGVPGVGVPGVGVPGVGVPGVGVPGVGVPGVGVPGVGVPGVGVPGVGVPGVGVPGVGVPGVGVPGVGVPGVGVPGVGVPGVGVPGVGVPGVGVPGVGVPGVGVPGVGVPGVGVPGVGVPGVGVPGVGVPGVGVPGVGVPGVGVPGVGVPGVGVPGVGVPGVGVPGVGVPGVGVP
Consider B5, for which, in series [1] (Table 5, 10 μM in PBS, 15 °C), the Nagg was 565, the “Rg(nm)” value is recorded as 41.3 nm and the “Rh (nm)” value worked out at 39.4 nm. In addition, the ρ in series [1] (Table 5) is 1.0.
